Experiments:
[1] = molecular target: Mut27 (Influenza A virus A/Brisbane/02/2018 (H1N1)); test: BLI (Octet), HA-foldon-His on Ni-NTA tips, IgG in solution
[2] = molecular target: Mut10 (Influenza A virus A/Brisbane/02/2018 (H1N1)); test: as above
[3] = molecular target: Mut24 (Influenza A virus A/Brisbane/02/2018 (H1N1)); test: as above
[4] = molecular target: Mut23 (Influenza A virus A/Brisbane/02/2018 (H1N1)); test: as above
[5] = molecular target: Mut18 (Influenza A virus A/Brisbane/02/2018 (H1N1)); test: as above
[6] = molecular target: Mut17 (Influenza A virus A/Brisbane/02/2018 (H1N1)); test: as above
[7] = molecular target: Mut27 (Influenza A virus A/Brisbane/02/2018 (H1N1)); test: BLI (Octet) after 7D37C and trypsin; HA on Ni-NTA tips
[8] = molecular target: Mut10 (Influenza A virus A/Brisbane/02/2018 (H1N1)); test: as above
[9] = molecular target: Mut24 (Influenza A virus A/Brisbane/02/2018 (H1N1)); test: as above
[10] = molecular target: Mut23 (Influenza A virus A/Brisbane/02/2018 (H1N1)); test: as above
[11] = molecular target: Mut18 (Influenza A virus A/Brisbane/02/2018 (H1N1)); test: as above
[12] = molecular target: Mut17 (Influenza A virus A/Brisbane/02/2018 (H1N1)); test: as above
[13] = molecular target: Mut24 (Influenza A virus A/Brisbane/02/2018 (H1N1)); test: BLI (Octet) after 7D37C and trypsin; footnote to the marked cell

Substance	Octet response (nm) [1] [nm]	Octet response (nm) [2] [nm]	Octet response (nm) [3] [nm]	Octet response (nm) [4] [nm]	Octet response (nm) [5] [nm]	Octet response (nm) [6] [nm]	Octet response (nm) [7] [nm]	Octet response (nm) [8] [nm]	Octet response (nm) [9] [nm]	Octet response (nm) [10] [nm]	Octet response (nm) [11] [nm]	Octet response (nm) [12] [nm]	fold reduction of affinity (KD) against control [13] [fold]
FI6v3 monoclonal antibody (IgG)	0.398	0.968	0.93	0.984	0.811	0.878	0.313	0.737	0.406	0.745	0.484	0.748	–
CR9114 monoclonal antibody (IgG)	0.337	0.805	0.872	0.901	0.731	0.814	0.314	0.729	0.0617	0.808	0.464	0.754	100
